Data: PMC11020753, “Contribution of amino acids in the active site of dipeptidyl peptidase 4 to the catalytic action of the enzyme” (PLOS ONE, 2024)

Substrate: CC(C)C[C@H](NC(=O)[C@@H]1CCCN1C(=O)[C@@H](N)C(C)C)C(=O)O
Test: purified protein, by the assay type
Conditions: T = 30 °C, 100 mM Tris-HCl, pH 7.6, substrate concentration 25 μM
[1] = other: wild type DP4, cleavage of diprotin B as substrate
[2] = other: R125A, cleavage of diprotin B as substrate

Protein | Km [1] | kcat [1] [s⁻¹] | kcat/Km [1] [M⁻¹ s⁻¹] | Km [2] | kcat [2] [s⁻¹] | kcat/Km [2] [M⁻¹ s⁻¹]
wild type DP4 (Homo sapiens) (protein) ADSRKTYTLTDYLKNTYRLKLYSLRWISDHEYLYKQENNILVFNAEYGNSSVFLENSTFDEFGHSINDYSISPDGQFILLEYNYVKQWRHSYTASYDIYDLNKRQLITEERIPNNTQWVTWSPVGHKLAYVWNNDIYVKIEPNLPSYRITWTGKEDIIYNGITDWVYEEEVFSAYSALWWSPNGTFLAYAQFNDTEVPLIEYSFYSDESLQYPKTVRVPYPKAGAVNPTVKFFVVNTDSLSSVTNATSIQITAPASMLIGDHYLCDVTWATQERISLQWLRRIQNYSVMDICDYDESSGRWNCLVARQHIEMSTTGWVGRFRPSEPHFTLDGNSFYKIISNEEGYRHICYFQIDKKDCTFITKGTWEVIGIEALTSDYLYYISNEYKGMPGGRNLYKIQLSDYTKVTCLSCELNPERCQYYSVSFSKEAKYYQLRCSGPGLPLYTLHSSVNDKGLRVLEDNSALDKMLQNVQMPSKKLDFIILNETKFWYQMILPPHFDKSKKYPLLLDVYAGPCSQKADTVFRLNWATYLASTENIIVASFDGRGSGYQGDKIMHAINRRLGTFEVEDQIEAARQFSKMGFVDNKRIAIWGWSYGGYVTSMVLGSGSGVFKCGIAVAPVSRWEYYDSVYTERYMGLPTPEDNLDHYRNSTVMSRAENFKQVEYLLIHGTADDNVHFQQSAQISKALVDVGVDFQAMWYTDEDHGIASSTAHQHIYTHMSHFIKQCFSLP | (7.2 ± 0.58) · 10^−6 M | 7 | 970000 |  |  | 
DP4 variant R125A (Homo sapiens; R125A) (protein) ADSRKTYTLTDYLKNTYRLKLYSLRWISDHEYLYKQENNILVFNAEYGNSSVFLENSTFDEFGHSINDYSISPDGQFILLEYNYVKQWAHSYTASYDIYDLNKRQLITEERIPNNTQWVTWSPVGHKLAYVWNNDIYVKIEPNLPSYRITWTGKEDIIYNGITDWVYEEEVFSAYSALWWSPNGTFLAYAQFNDTEVPLIEYSFYSDESLQYPKTVRVPYPKAGAVNPTVKFFVVNTDSLSSVTNATSIQITAPASMLIGDHYLCDVTWATQERISLQWLRRIQNYSVMDICDYDESSGRWNCLVARQHIEMSTTGWVGRFRPSEPHFTLDGNSFYKIISNEEGYRHICYFQIDKKDCTFITKGTWEVIGIEALTSDYLYYISNEYKGMPGGRNLYKIQLSDYTKVTCLSCELNPERCQYYSVSFSKEAKYYQLRCSGPGLPLYTLHSSVNDKGLRVLEDNSALDKMLQNVQMPSKKLDFIILNETKFWYQMILPPHFDKSKKYPLLLDVYAGPCSQKADTVFRLNWATYLASTENIIVASFDGRGSGYQGDKIMHAINRRLGTFEVEDQIEAARQFSKMGFVDNKRIAIWGWSYGGYVTSMVLGSGSGVFKCGIAVAPVSRWEYYDSVYTERYMGLPTPEDNLDHYRNSTVMSRAENFKQVEYLLIHGTADDNVHFQQSAQISKALVDVGVDFQAMWYTDEDHGIASSTAHQHIYTHMSHFIKQCFSLP |  |  |  | (3.7 ± 0.26) · 10^−4 M | 7.7 | 21000
